Source: patent US20220356245A1 (FORTY SEVEN, published 2022)
Where two headings read alike, the source gives them in different places. Each block holds one binder with its values, some of them ahead of it.

Key:
[1] = molecular target: T1, human CD47 (hCD47) expressed on cells (human, UniProt Q08722 19-323); assay: flow cytometry on Raji cells, hIgG4 format: inhibition of hSIRPα binding to hCD47
T1 construct: Transfected CHO cells or endogenous CD47 of human cells; also called CHO-hCD47; CD47 on Raji cells

[2] = molecular target: T1, human CD47 (hCD47) expressed on cells; assay: flow cytometry, Raji cells
[3] = molecular target: T1, human CD47 (hCD47) expressed on cells; assay: flow cytometry on Raji cells, hIgG4 format, delta MFI
[4] = molecular target: T2, hu-sCD47-6His; extracellular domain of human CD47 antigen with 6His-tag (human); assay: SPR Biacore
T2 construct: also called hCD47-his; soluble hCD47
Excerpt: (§1) An anti-human or anti-mouse IgG (Fc) was first immobilized on the surface of Serie S Sensor Chips CM5 using the human or mouse antibody capture and amine coupling kits, following the manufacturer's instructions (GE Healthcare). […] The mouse, chimerized or humanized antibodies to be tested were then captured onto the appropriate anti-mouse or anti-human IgG surface in all flow cells except flow cell 1 used as control, at concentration and contact time adjusted so that ˜300 RU were captured on the surface. Binding kinetics were studied by passing increasing concentrations of hCD47-his in a series of five 10 minute injections through all flow cells at a rate of 30 μL/min. […] Following the final injection, buffer was passed across each flow cell for 60 minutes (mouse) or 30 minutes (human) to monitor the dissociation of bound antigen. Regeneration of the binding surface was carried out at the end of the cycle by flowing 3 M MgCl₂ for 60 s at 20 μL/min followed by 10 mM glycine-HCl, pH 1.7 for 180 s at 10 μl/min (for human) or by flowing 10 mM glycine-HCl, ph 1.7 for 360 s at 10 μl/min (for mouse). A second cycle with the same antibodies but no antigen was run as a control. Kinetics binding constants were estimated by non-linear fitting of the sensogram data to the 1:1 binding model provided by the Biacore T200 evaluation software.

[5] = molecular target: T1, human CD47 (hCD47) expressed on cells; assay: flow cytometry, Raji cells, competition with hSIRPα
[6] = molecular target: T3, N-deglycosylated soluble hCD47-His (PNGase treated) (human, N-glycans removed with PNGase); assay: ELISA, one-site binding saturation fit, deglycosylated hCD47
T3 construct: also called deglycosylated-hCD47; N-Deglycosylated hCD47-His
Description: (§2) The Bmax values were calculated by using the binding saturation/one-site binding model of the GraphPad Prism software (mean +/− SD of triplicates).

[7] = molecular target: T3, N-deglycosylated soluble hCD47-His …; assay: ELISA, coated N-deglycosylated hCD47-His
[8] = molecular target: T1, human CD47 (hCD47) expressed on cells; assay: flow cytometry on Raji cells, hIgG4 format: inhibition of hSIRPα binding to hCD47; remark: listed apart in the source
[9] = molecular target: T3, N-deglycosylated soluble hCD47-His …; assay: ELISA, one-site binding saturation fit, deglycosylated hCD47; remark: listed apart in the source
Description: (§3) The equilibrium binding constant values were calculated by using the binding saturation/one-site binding model of the GraphPad Prism software (mean +/− SD of triplicates).

[10] = molecular target: T2, hu-sCD47-6His; extracellular domain of …; assay: ELISA, one-site binding saturation fit, glycosylated hCD47
Description: as §2

[11] = molecular target: T2, hu-sCD47-6His; extracellular domain of …; assay: as above; remark: listed apart in the source
Description: as §3

[12] = molecular target: T1, human CD47 (hCD47) expressed on cells; assay: flow cytometry on Raji cells, hIgG4 format, delta MFI; remark: listed apart in the source
[13] = molecular target: T3, N-deglycosylated soluble hCD47-His …; assay: ELISA; against glycosylated hCD47-His
Description: (§4) The EC50 and EC95 values were calculated by using the non-linear regression/log (antibody) versus response (four parameters) model of the GraphPad Prism software.

[14] = molecular target: T2, hu-sCD47-6His; extracellular domain of …; assay: ELISA, coated glycosylated hCD47-His
Description: as §4

[15] = molecular target: T2, hu-sCD47-6His; extracellular domain of …; assay: SPR Biacore; remark: listed apart in the source
Excerpt: as §1

[16] = molecular target: T1, human CD47 (hCD47) expressed on cells; assay: flow cytometry, Raji cells; remark: listed apart in the source
[17] = molecular target: T2, hu-sCD47-6His; extracellular domain of …; assay: SPR Biacore; head read as x 10^-4
Excerpt: as §1

[18] = molecular target: T4, mouse CD47 (mCD47) expressed on CHO cells (mouse, UniProt Q61735 19-303); assay: flow cytometry, CHO-mCD47 cells (not shown)
T4 construct: whole, on cells; also called CHO-mCD47
T4 sequence (looked up): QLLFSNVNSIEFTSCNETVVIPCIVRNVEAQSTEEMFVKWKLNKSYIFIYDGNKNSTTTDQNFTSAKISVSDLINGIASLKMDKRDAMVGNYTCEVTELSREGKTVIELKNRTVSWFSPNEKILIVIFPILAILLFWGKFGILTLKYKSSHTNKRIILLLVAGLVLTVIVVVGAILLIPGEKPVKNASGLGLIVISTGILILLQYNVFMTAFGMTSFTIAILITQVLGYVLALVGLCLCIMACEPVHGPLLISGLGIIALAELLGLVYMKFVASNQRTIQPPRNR

[19] = molecular target: T1, human CD47 (hCD47) expressed on cells; assay: flow cytometry, Raji cells, competition with hSIRPα; remark: listed apart in the source
[20] = molecular target: T1, human CD47 (hCD47) expressed on cells; assay: flow cytometry on Raji cells, hIgG4 format: inhibition of hSIRPα binding to hCD47; remark: listed apart in the source
[21] = molecular target: T1, human CD47 (hCD47) expressed on cells; assay: flow cytometry on Raji cells, hIgG4 format, delta MFI; remark: listed apart in the source
[22] = molecular target: T1, human CD47 (hCD47) expressed on cells; assay: as above; remark: listed apart in the source
[23] = molecular target: T1, human CD47 (hCD47) expressed on cells; assay: flow cytometry on Raji cells, hIgG4 format: inhibition of hSIRPα binding to hCD47; remark: listed apart in the source
[24] = molecular target: T1, human CD47 (hCD47) expressed on cells; assay: flow cytometry, Raji cells, competition with hSIRPα; remark: listed apart in the source
[25] = molecular target: T1, human CD47 (hCD47) expressed on cells; assay: flow cytometry, Raji cells; remark: listed apart in the source
[26] = molecular target: T2, hu-sCD47-6His; extracellular domain of …; assay: SPR Biacore; remark: listed apart in the source
Excerpt: as §1

IC50 (read off the curve) [20]: ~0.3 µg/mL
EC50 (read off the curve) [21]: ~0.1 µg/mL
Kd [15]: 3.5 nM
kon [15]: 192000 M⁻¹ s⁻¹
EC50 [16]: 0.136 µg/mL
koff [17]: 0.000624 s⁻¹
binding result [18]: no binding
IC50 [19]: 0.095 µg/mL
B6: h20-VH4-VL5 (candidate 20.20) (antibody, human IgG4 S228P, kappa, V domains shown)
VH: QVQLVQSGAEVKKPGSSVKVSCKASGYSFTDYYINWVRQAPGQGLEWMGRIYPGIGNTYYNKKFKGRVTITADKSTSTAYMELSSLRSEDTAVYYCARGHYGRGMDYWGQGTTVTVSS
VL: DIVMTQSPDSLAVSLGERATINCKSSQSLLNSIDQKNYLAWYQQKPGQPPKLLIYFASTKESGVPDRFSGSGSGTDFTLTISGLQAEDVAVYFCQQHYSTPWTFGGGTKVEIRR
notes: hIgG4-S228P/kappa; also called h20-H4-L5

Kd [15]: 4.15 nM
kon [15]: 179000 M⁻¹ s⁻¹
EC50 [16]: 0.139 µg/mL
EC50 (read off the curve) [22]: ~0.1 µg/mL
koff [17]: 0.000685 s⁻¹
binding result [18]: no binding
IC50 [19]: 0.192 µg/mL
IC50 (read off the curve) [23]: ~0.3 µg/mL
B7: h20-VH4-VL4 (candidate 20.19) (antibody, human IgG4 S228P, kappa, V domains shown)
VH: QVQLVQSGAEVKKPGSSVKVSCKASGYSFTDYYINWVRQAPGQGLEWMGRIYPGIGNTYYNKKFKGRVTITADKSTSTAYMELSSLRSEDTAVYYCARGHYGRGMDYWGQGTTVTVSS
VL: DIVMTQSPDSLAVSLGERATINCKSSQSLLNSIDQKNYLAWYQQKPGQPPKLLIYFASTKESGVPDRFSGSGSGTDFTLTISSLQAEDVAVYFCQQHYSTPWTFGGGAKVEIKR
notes: hIgG4-S228P/kappa; also called h20-H4-L4

IC50 [24]: 0.14 µg/mL
Bmax2 [6]: 2.57 OD value
EC50 [7]: 0.042 nM
EC95 [7]: 6.67 nM
EC50 [25]: 0.122 µg/mL
Kd [26]: 12.2 nM
koff [26]: 0.000381 s⁻¹
kon [26]: 31200 M⁻¹ s⁻¹
equilibrium binding constant [9]: 31.8 pM
Bmax [10]: 2.85 OD value
equilibrium binding constant [11]: 34.4 pM
EC50 ratio Deglycosylated/Glycosylated [13]: 1.1 ratio
EC95 ratio Deglycosylated/Glycosylated [13]: 1.4 ratio
EC50 [14]: 0.0387 nM
EC95 [14]: 4.67 nM
B8: hIgG4 chimeric candidate 22 (mouse VH/VL, human Fcγ4-S228P and human Kappa backbone) (antibody, V domains shown)
VH: QVQLQQPGAELVKPGASVKLSCKASGYTFTTYWMHWVKQRPGQGLEWIGMIHPNSGTTNYNEKFKSKATLTVDKSSSSTYMQLSSLTSEDSAVYYCTRSHYYDGHFSYWGQGTLVTVSA
VL: DIVMSQSPSSLAVSAGEKVTMSCKSSQSLLNSRTRKNYLAWYQQKPGQSPKLLIYWASTRESGVPDRFTGSGSGTDFTLTISSVQAEDLAVYYCKQSYNLWTFGGGTRLEIKR
notes: hIgG4-S228P/kappa; also called Chim; 22

The next lines start with the binder.

B1: h20-H3-L2Y (candidate 20.27), hIgG4-S228P (antibody, V domains shown)
VH: QVQLVQSGAEVKKPGASVKVSCKASGYSFTDYYINWVRQAPGQGLEWMGRIYPGIGNTYYNKKFKGRVTVTRDTSISTAHMELSSLRSDDTAVYYCARGHYGRGMDYWGQGTAVTVSS
VL: DIVMTQSPDSLAVSLGERATINCKSSQSLLNSIDQKNYLAWYQQKPGQPPKLLIYYASTKESGVPDRFSGSGSGTDFTLTISSLQAEDVAVYYCQQHYSTPWTFGGGTKVEIKR
notes: also called H20-VH3-VL2,Y
IC50 (read off the curve) [1]: ~0.2 µg/mL
EC50 [2]: 0.0854 µg/mL
EC50 (read off the curve) [3]: ~0.1 µg/mL
Kd [4]: 2.06 nM
koff [4]: 0.000584 s⁻¹
kon [4]: 292000 M⁻¹ s⁻¹
IC50 [5]: 0.101 µg/mL

B2: h20-H2-L5Y (candidate 20.26), huIgG4_S228P format (antibody, V domains shown)
VH: QVQLVQSGAEVKKPGASVKVSCKASGYSFTDYYINWVRQAPGQGLEWMGRIYPGIGNTYYNKKFKGRVTITRDTSASTAYMELSSLRSEDTAVYYCARGHYGRGMDYWGQGTLVTVSS
VL: DIVMTQSPDSLAVSLGERATINCKSSQSLLNSIDQKNYLAWYQQKPGQPPKLLIYYASTKESGVPDRFSGSGSGTDFTLTISGLQAEDVAVYFCQQHYSTPWTFGGGTKVEIRR
notes: also called H20-VH2-VL5,Y; h2O-H2L5Y
Bmax2 [6]: 1.97 OD value
EC50 [7]: 0.096 nM
EC95 [7]: 11.3 nM
IC50 (read off the curve) [8]: ~0.2 µg/mL
equilibrium binding constant [9]: 55.7 pM
Bmax [10]: 2.85 OD value
equilibrium binding constant [11]: 43.6 pM
EC50 [2]: 0.0975 µg/mL
EC50 (read off the curve) [12]: ~0.1 µg/mL
Kd [4]: 2.32 nM
koff [4]: 0.000699 s⁻¹
kon [4]: 306000 M⁻¹ s⁻¹
IC50 [5]: 0.113 µg/mL
EC50 ratio Deglycosylated/Glycosylated [13]: 2.2 ratio
EC95 ratio Deglycosylated/Glycosylated [13]: 8.5 ratio
EC50 [14]: 0.044 nM
EC95 [14]: 1.33 nM

B3: h20-VH2-VL5 (candidate 20.10) (antibody, human IgG4 S228P, kappa, V domains shown)
VH: QVQLVQSGAEVKKPGASVKVSCKASGYSFTDYYINWVRQAPGQGLEWMGRIYPGIGNTYYNKKFKGRVTITRDTSASTAYMELSSLRSEDTAVYYCARGHYGRGMDYWGQGTLVTVSS
VL: DIVMTQSPDSLAVSLGERATINCKSSQSLLNSIDQKNYLAWYQQKPGQPPKLLIYFASTKESGVPDRFSGSGSGTDFTLTISGLQAEDVAVYFCQQHYSTPWTFGGGTKVEIRR
notes: hIgG4-S228P/kappa; also called h20-H2-L5
Kd [15]: 5.85 nM
kon [15]: 118000 M⁻¹ s⁻¹
IC50 (read off the curve) [8]: ~0.2 µg/mL
EC50 [16]: 0.191 µg/mL
EC50 (read off the curve) [12]: ~0.1 µg/mL
koff [17]: 0.000634 s⁻¹
binding result [18]: no binding
IC50 [19]: 0.051 µg/mL

B4: h20-H4-L5Y (candidate 20.30), hIgG4-S228P (antibody, V domains shown)
VH: QVQLVQSGAEVKKPGSSVKVSCKASGYSFTDYYINWVRQAPGQGLEWMGRIYPGIGNTYYNKKFKGRVTITADKSTSTAYMELSSLRSEDTAVYYCARGHYGRGMDYWGQGTTVTVSS
VL: DIVMTQSPDSLAVSLGERATINCKSSQSLLNSIDQKNYLAWYQQKPGQPPKLLIYYASTKESGVPDRFSGSGSGTDFTLTISGLQAEDVAVYFCQQHYSTPWTFGGGTKVEIRR
notes: also called H20-VH4-VL5,Y
IC50 (read off the curve) [20]: ~0.3 µg/mL
EC50 (read off the curve) [21]: ~0.1 µg/mL
EC50 [2]: 0.105 µg/mL
Kd [4]: 2.82 nM
koff [4]: 0.000693 s⁻¹
kon [4]: 254000 M⁻¹ s⁻¹
IC50 [5]: 0.149 µg/mL

B5: h20-H4-L4Y (candidate 20.29), hIgG4-S228P (antibody, V domains shown)
VH: QVQLVQSGAEVKKPGSSVKVSCKASGYSFTDYYINWVRQAPGQGLEWMGRIYPGIGNTYYNKKFKGRVTITADKSTSTAYMELSSLRSEDTAVYYCARGHYGRGMDYWGQGTTVTVSS
VL: DIVMTQSPDSLAVSLGERATINCKSSQSLLNSIDQKNYLAWYQQKPGQPPKLLIYYASTKESGVPDRFSGSGSGTDFTLTISSLQAEDVAVYFCQQHYSTPWTFGGGAKVEIKR
notes: also called H20-VH4-VL4,Y
EC50 [2]: 0.147 µg/mL
EC50 (read off the curve) [22]: ~0.1 µg/mL
Kd [4]: 2.61 nM
koff [4]: 0.000761 s⁻¹
kon [4]: 306000 M⁻¹ s⁻¹
IC50 [5]: 0.181 µg/mL
IC50 (read off the curve) [23]: ~0.4 µg/mL
